In patent US20230040275A1, “SECRETABLE PROTEIN INDUCED IMMUNE TOLERIZATION AND TREATMENT OF AUTOIMMUNE, ALLERGIC AND OTHER DISEASES AND DISORDERS” (SPARK THERAPEUTICS, INC., priority 2019, published 2023):

Test system: Huh7 cells
Experiment: Plasma membrane retention of full-length MOG in transformed Huh7 cells
Type: cell-based
Details: 72 hr post-transfection, leaders WT, Sp7, HC7s
Description: To examine the secretability of the full-length MOG protein the plasma membrane and cell lysate and media of transformed Huh7 cells were examined for MOG expression. Huh7 cells were grown to ˜80% confluency and transformed using plasmids expressing full-length myelin oligodendrocyte glycoprotein (MOG) with various leader sequences: Wildtype (WT; native MOG leader), human chymotrypsinogen B2 signal peptide (“Sp7”; 18 amino acid signal peptide of NCBI reference sequence NP_001020371), or a combination of WT with the heavy chain 7 sequence (HC7s; Haryadi et al., PloS ONE 10(2): e0116878. doi:10.1371/journal.pone.0116878 (2015)). Cells and media were harvested 72 hr post-transfection. Plasma membrane fractions from cells were enriched as described (Nishiumi et al., Biosci. Biotechnol. Biochem. 71 (9), 2343-2346, (2007)) Briefly, cells were harvested in modified Buffer A (50 mM Tris, 0.5 mM DTT) with protease inhibitors (cOmplete™ tablets, Roche) and 0.1% Triton X100. The cells were sheared by passage through a 25-gauge needle; 3 times. The homogenate was centrifuged for 10 min at 1000×g at 4° C. The supernatant was harvested as post-plasma membrane (PPM) fraction. […] Standard WES parameters were used, and samples were analyzed on Compass Software (ProteinSimple).

B1: full-length MOG: full-length myelin oligodendrocyte glycoprotein expressed from plasmids with WT, Sp7 or HC7s leader sequences (protein, UniProt Q16653 1-247, looked up)
chain: MASLSRPSLPSCLCSFLLLLLLQVSSSYAGQFRVIGPRHPIRALVGDEVELPCRISPGKNATGMEVGWYRPPFSRVVHLYRNGKDQDGDQAPEYRGRTELLKDAIGEGKVTLRIRNVRFSDEGGFTCFFRDHSYQEEAAMELKVEDPFYWVSPGVLVLLAVLPVLLLQITVGLIFLCLQYRLRGKLRAEIENLHRTFDPHFLRVPCWKITLFVIVPVLGPLVALIICYNWLHRRLAGQFLEELRNPF
modifications: full-length
In the case of B1, the “localisation of full-length MOG (plasma membrane vs cell lysate and media)” value is reported as “retained in the plasma membrane” and the “localisation of full-length MOG (plasma membrane vs cell lysate and media)” value (listed as Mature MOG) is reported as “enriched in the plasma membrane”.
